Test results: patent US20150293119A1

Columns and labels:
[1] = molecular target: recombinant human MMP-9/NGAL complex (human) (UniProt P14780); assay: ELISA (Quantikine, R&D Systems)
[2] = molecular target: human CNP-53 (AA 51-103) (human) (UniProt P23582); assay: radioimmunoassay
[3] = molecular target: human CNP-22 (AA 82-103) (human) (UniProt P23582); assay: radioimmunoassay
[4] = molecular target: ANP (Homo sapiens (Human)) (UniProt P01160); assay: radioimmunoassay, competition with I125-labeled CNP
[5] = molecular target: human CNP-53 (AA 51-103) (human) (UniProt P23582); assay: as above
[6] = molecular target: adrenomedullin (Homo sapiens (Human)) (UniProt P35318); assay: as above
[7] = molecular target: BNP (Homo sapiens (Human)) (UniProt P16860); assay: as above
endothelin = assay: as above

For “NGAL enzyme-linked immunoassay (Quantikine ELISA, R&D Systems) (tool reagent)”, the cross-reactivity [1] was 0.3%.

Substance “antibody that detects human CNP-22, non-equilibrium radioimmunoassay kit from Phoenix Pharmaceutical (Example 2) (tool reagent)” has a cross-reactivity [2] of 59%.

With “antibody that detects human CNP-53, non-equilibrium radioimmunoassay kit from Phoenix Pharmaceutical (tool reagent)” the cross-reactivity [3] was 100%.

For “antibody to human CNP-22 of the non-equilibrium radioimmunoassay kit from Phoenix Pharmaceutical (Example 1) (tool reagent)”, the cross-reactivity [4] was under 1%, the cross-reactivity [5] was 97% and the cross-reactivity [6] was under 1%. For the same substance, the cross-reactivity [7] was under 1% and the cross-reactivity (endothelin) was under 1%.
